Bridge positions count the residues as written; N and C are the ends. Square brackets hold non-standard residues; d marks the D form. Ends that are not written are not given here. mXylyl = xylyl linker from dibromoxylene joining the two cysteines; NMeY = CN[C@@H](Cc1ccc(O)cc1)C(=O)O; NMeT = CN[C@H](C(=O)O)[C@@H](C)O; NMeS = CN[C@@H](CO)C(=O)O; Nva = CCC[C@H](N)C(=O)O
B1: R2142 (peptide)
peptide: Ac-CNYWSPWTAC-NH2
modifications: disulfide 1-10
SMILES: CC(=O)N[C@H]1CSSC[C@@H](C(N)=O)NC(=O)[C@H](C)NC(=O)[C@H]([C@@H](C)O)NC(=O)[C@H](Cc2c[nH]c3ccccc23)NC(=O)[C@@H]2CCCN2C(=O)[C@H](CO)NC(=O)[C@H](Cc2c[nH]c3ccccc23)NC(=O)[C@H](Cc2ccc(O)cc2)NC(=O)[C@H](CC(N)=O)NC1=O
B2: R2139 (peptide)
peptide: Ac-[Nva]NYWSPWTAC-NH2
SMILES: CCC[C@H](NC(C)=O)C(=O)N[C@@H](CC(N)=O)C(=O)N[C@@H](Cc1ccc(O)cc1)C(=O)N[C@@H](Cc1c[nH]c2ccccc12)C(=O)N[C@@H](CO)C(=O)N1CCC[C@H]1C(=O)N[C@@H](Cc1c[nH]c2ccccc12)C(=O)N[C@H](C(=O)N[C@@H](C)C(=O)N[C@@H](CS)C(N)=O)[C@@H](C)O
B3: R2141 (peptide)
peptide: Ac-[Nva]NYWSPWTA[Nva]-NH2
SMILES: CCC[C@H](NC(=O)[C@H](C)NC(=O)[C@@H](NC(=O)[C@H](Cc1c[nH]c2ccccc12)NC(=O)[C@@H]1CCCN1C(=O)[C@H](CO)NC(=O)[C@H](Cc1c[nH]c2ccccc12)NC(=O)[C@H](Cc1ccc(O)cc1)NC(=O)[C@H](CC(N)=O)NC(=O)[C@H](CCC)NC(C)=O)[C@@H](C)O)C(N)=O
B4: R2140 (peptide)
peptide: Ac-CNYWSPWTA[Nva]-NH2
SMILES: CCC[C@H](NC(=O)[C@H](C)NC(=O)[C@@H](NC(=O)[C@H](Cc1c[nH]c2ccccc12)NC(=O)[C@@H]1CCCN1C(=O)[C@H](CO)NC(=O)[C@H](Cc1c[nH]c2ccccc12)NC(=O)[C@H](Cc1ccc(O)cc1)NC(=O)[C@H](CC(N)=O)NC(=O)[C@H](CS)NC(C)=O)[C@@H](C)O)C(N)=O

Molecular target: T1, Activated human plasma kallikrein (Enzyme Research Laboratories, HPKa 1303) (human, UniProt P03952 20-638)
T1 sequence (P03952 20-638 limits assumed): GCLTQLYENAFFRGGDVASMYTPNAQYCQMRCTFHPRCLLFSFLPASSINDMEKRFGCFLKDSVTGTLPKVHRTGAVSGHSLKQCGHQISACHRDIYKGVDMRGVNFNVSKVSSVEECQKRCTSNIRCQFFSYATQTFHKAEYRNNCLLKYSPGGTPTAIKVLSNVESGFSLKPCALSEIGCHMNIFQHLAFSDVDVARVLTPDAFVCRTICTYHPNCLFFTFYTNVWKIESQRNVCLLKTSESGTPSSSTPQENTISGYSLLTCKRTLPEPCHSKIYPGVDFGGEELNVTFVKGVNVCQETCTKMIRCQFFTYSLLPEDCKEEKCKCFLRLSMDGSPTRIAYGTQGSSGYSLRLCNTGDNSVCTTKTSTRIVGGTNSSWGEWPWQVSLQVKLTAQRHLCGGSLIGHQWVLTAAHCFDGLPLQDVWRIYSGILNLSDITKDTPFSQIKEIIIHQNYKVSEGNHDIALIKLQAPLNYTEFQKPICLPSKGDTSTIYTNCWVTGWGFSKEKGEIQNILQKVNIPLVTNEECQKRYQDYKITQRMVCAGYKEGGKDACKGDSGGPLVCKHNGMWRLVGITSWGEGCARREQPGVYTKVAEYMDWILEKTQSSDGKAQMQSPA
Experiment: cell-based or functional assay

Row | Avg. IC50 | Binder
1 | 2.4 nM | MCNYWSPWTE-NH2 [R2112]
2 | 2.7 nM | B1
3 | 58.8 nM | Ac-ANYWSPWTAA-NH2 [R2145]
4 | 349 nM | MCNYWSPW-NH2 [R2114]
5 | 57.2 nM | Ac-CNYWSAWTEC-NH2 (cysteine pairing not given here) [R2137]
6 | 25.5 nM | MCNYWSPWTSE-NH2 [R2123]
7 | 86.7 nM | Ac-CNYWSPWTC-NH2 (cysteine pairing not given here) [R2134]
8 | 43.9 nM | Ac-NYWSPWTECSA-NH2 [R2117]
9 | 6.1 nM | Ac-CNYWSPWTAC-NH2 (linker 1-10 via mXylyl) [R2136]
10 | 54.6 nM | MCNYWSPWTS-NH2 [R2124]
11 | 48.4 nM | Ac-ANYWSPWTAC-NH2 [R2143]
12 | 3.8 nM | MCNYWSPWTEC-NH2 (cysteine pairing not given here) [R2111]
13 | 128 nM | MSNYWSPWTESSA-NH2 [R2107]
14 | 65.3 nM | B2
15 | 22.3 nM | Ac-ANYWSPWTEC-NH2 [R2138]
16 | 374 nM | Ac-NYWSPWT-NH2 [R2106]
17 | 4.1 nM | MCNYWSPWTECSA-NH2 (linker 2-11 via mXylyl) [R2108]
18 | > 100000 nM | Ac-SPWTECSA-NH2 [R2120]
19 | 10.6 nM | Ac-CNYWSPWTECSA-NH2 (linker 1-10 via mXylyl) [R2125]
20 | > 100000 nM | Ac-WSPWTECSA-NH2 [R2119]
21 | 35.6 nM | Ac-CNYWSPWTEA-NH2 [R2127]

Row | Avg. IC50 | Binder
22 | 3.5 nM | Ac-CNYWSPWTECSA-NH2 (cysteine pairing not given here) [R2116]
23 | 12.3 nM | Ac-CNYWSPWAEC-NH2 (cysteine pairing not given here) [R2129]
24 | 30.4 nM | MCNYWSPWTSEI-NH2 [R2122]
25 | 9.2 nM | MCNYWSPWTSEIC-NH2 (linker 2-13 via mXylyl) [R2109]
26 | > 17300 nM | MCNYWSP-NH2 [R2115]
27 | 1.4 nM | Ac-CNYWSPWTEC-NH2 (cysteine pairing not given here) [R2126]
28 | 10300 nM | Ac-PWTECSA-NH2 [R2121]
29 | 39.1 nM | Ac-CNAWSPWTEC-NH2 (cysteine pairing not given here) [R2133]
30 | > 100000 nM | Ac-YWSPWTECSA-NH2 [R2118]
31 | 5300 nM | Ac-CNYWSPATEC-NH2 (cysteine pairing not given here) [R2130]
32 | 4110 nM | Ac-CNYASPWTEC-NH2 (cysteine pairing not given here) [R2132]
33 | 3.5 nM | MCNYWSPWTECS-NH2 (cysteine pairing not given here) [R2110]
34 | 4.4 nM | MCNYWSPWTSEIC-NH2 (cysteine pairing not given here) [R2105]
35 | 144 nM | Ac-CNYWSPWT-NH2 [R2135]
36 | 157 nM | B3
37 | 95.5 nM | Ac-CNYWSPWTAA-NH2 [R2144]
38 | 88.8 nM | MCNYWSPWT-NH2 [R2113]
39 | 2.5 nM | Ac-CNYWSPWTAC-NH2 (cysteine pairing not given here) [R2128]
40 | 17.5 nM | Ac-CNYWSPWAAC-NH2 (cysteine pairing not given here) [R2146]
41 | 105 nM | B4
42 | 127 nM | Ac-CNYWAPWTEC-NH2 (cysteine pairing not given here) [R2131]

Molecular target: T1, Activated human plasma kallikrein …
Experiment: cell-based or functional assay
Remark: another data set of the same source

Row | Avg. IC50 | Binder
43 | > 6580 nM | Ac-CNYW[dS]PWTAC-NH2 (cysteine pairing not given here) [R2230]
44 | > 100000 nM | Ac-CN[NMeY]W[NMeS]PW[NMeT]AC-NH2 (linker 1-10 via mXylyl) [R2223]
45 | > 10600 nM | Ac-CNYWSP[dW]TAC-NH2 (cysteine pairing not given here) [R2228]
46 | 222 nM | Ac-CNYWSPWT[dA]C-NH2 (cysteine pairing not given here) [R2226]
47 | 926 nM | CNYWSPWTAA (also: Cyclo(1,10): ring between residues 1 and 10, bond kind not given here) [R2222]
48 | > 14300 nM | Ac-CNYWS[dP]WTAC-NH2 (cysteine pairing not given here) [R2229]
49 | 8.1 nM | Ac-CNYWSPWTA[dC]-NH2 (cysteine pairing not given here) [R2225]
50 | 760 nM | Ac-CNY[dW]SPWTAC-NH2 (cysteine pairing not given here) [R2231]
51 | > 100000 nM | Ac-CN[NMeY]W[NMeS]PW[NMeT]AC-NH2 (disulfide 1-10) [R2224]
52 | 323 nM | Ac-CNYWSPW[dT]AC-NH2 (cysteine pairing not given here) [R2227]

Source: patent US20150166606A1 (RA PHARMACEUTICALS, published 2015)
